Common to all, as to assay: EMSA
Background: In EMSA bound probe runs differently from free probe, usually more slowly.

Data set [1] has as its target T1, GST:CD+HD (UniProt Q01826 255-763).
T1 sequence: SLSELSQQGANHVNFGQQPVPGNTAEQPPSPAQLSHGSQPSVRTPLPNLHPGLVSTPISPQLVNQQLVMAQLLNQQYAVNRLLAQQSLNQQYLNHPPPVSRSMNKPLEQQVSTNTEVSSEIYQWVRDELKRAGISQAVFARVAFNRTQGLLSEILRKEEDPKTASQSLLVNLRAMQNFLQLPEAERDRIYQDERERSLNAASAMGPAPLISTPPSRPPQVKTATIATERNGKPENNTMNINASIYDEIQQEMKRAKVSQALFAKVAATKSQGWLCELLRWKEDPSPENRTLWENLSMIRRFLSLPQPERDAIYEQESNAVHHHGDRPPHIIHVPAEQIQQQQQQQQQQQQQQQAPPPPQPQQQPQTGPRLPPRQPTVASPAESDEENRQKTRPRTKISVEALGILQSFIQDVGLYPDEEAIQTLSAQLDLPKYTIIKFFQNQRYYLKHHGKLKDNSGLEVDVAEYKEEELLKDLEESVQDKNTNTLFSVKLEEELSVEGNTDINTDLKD

Data set [2] deals with T2, GST:HD (UniProt Q01826 640-763).
T2 sequence: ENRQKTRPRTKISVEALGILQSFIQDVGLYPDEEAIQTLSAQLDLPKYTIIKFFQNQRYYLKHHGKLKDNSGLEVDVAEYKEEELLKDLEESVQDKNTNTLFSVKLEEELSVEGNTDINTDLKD

In data set [3] the target is T1, GST:CD+HD. This is another data set of the same source.

Read-outs that look alike come from different tables or passages of the source.

One may read the Kd as a measure of binding affinity in units of concentration. Read a high Kd as lower affinity.

B1: probe 9 (dsDNA)
DNA 1: TATTAGTAATCATATTAGTAATCA
DNA 2: TGATTACTAATATGATTACTAATA
For B1, the dissociation constant (Kd) in data set [1] turned out to be 10 nM.

B2: probe 13 (IgH MAR core dimer) (dsDNA)
DNA 1: AATTTCTAATATAATTTCTAATAT
DNA 2: ATATTAGAAATTATATTAGAAATT
In data set [1], B2 yielded a dissociation constant Kd of 10 nM.

B3: probe 10 (dsDNA)
DNA 1: TATTAGTAATACTATTAGTAATAC
DNA 2: GTATTACTAATAGTATTACTAATA
Turning to B3, the Kd was 20 nM in data set [1] and 200 nM in data set [2].

B4: probe 3 (dsDNA)
DNA 1: TATTAGCAATAATATTAGCAATAA
DNA 2: TTATTGCTAATATTATTGCTAATA
As for B4, the dissociation constant (Kd) in data set [1] came out at 50 nM.

B5: probe 5 (dsDNA)
DNA 1: TATTAATAATAATATTAATAATAA
DNA 2: TTATTATTAATATTATTATTAATA
As for B5, the dissociation constant Kd in data set [1] turned out to be 10 nM.

B6: CSBS dimer (probe 1) (dsDNA)
DNA 1: TATTAGTAATAATATTAGTAATAA
DNA 2: TTATTACTAATATTATTACTAATA
On to B6, for which the dissociation constant (Kd) in data set [2] came out at 200 nM; in data set [3], 10 nM.
